Test results taken from publication PMC3430658, “Investigation of Real-Time Photorepair Activity on DNA via Surface Plasmon Resonance”.

Key:
[1] = biological target: T1, CRY-DASH (VcCry1, MBP fusion) (Vibrio cholerae, UniProt Q9KR33 1-461); assay: SPR; photoactivated, DTT; repair during injection; SPR (SensiQ Discovery, neutravidin BioCap chip), 1X PBS (10 mM phosphate, 2.7 mM KCl, 137 mM NaCl) pH 7.4, 0.005% Tween 20, 25 C, 50 uL/min; protein in PBS with 1 mM DTT; conditions: protein: recombinant; tags: MBP (pMal-c2x, pUNC2002); label: 5'-biotin
T1 sequence: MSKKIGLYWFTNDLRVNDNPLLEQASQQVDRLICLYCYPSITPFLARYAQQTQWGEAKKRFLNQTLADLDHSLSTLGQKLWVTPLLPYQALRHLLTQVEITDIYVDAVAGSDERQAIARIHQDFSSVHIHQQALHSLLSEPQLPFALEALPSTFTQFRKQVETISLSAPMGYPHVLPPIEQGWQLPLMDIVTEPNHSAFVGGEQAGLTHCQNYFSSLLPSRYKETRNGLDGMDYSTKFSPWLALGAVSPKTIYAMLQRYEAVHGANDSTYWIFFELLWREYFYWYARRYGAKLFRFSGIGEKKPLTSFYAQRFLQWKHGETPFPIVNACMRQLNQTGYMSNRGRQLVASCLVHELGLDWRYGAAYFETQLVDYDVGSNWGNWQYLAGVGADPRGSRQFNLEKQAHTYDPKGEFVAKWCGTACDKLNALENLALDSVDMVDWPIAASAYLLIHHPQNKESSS

[2] = biological target: T2, VcPHR (CPD photolyase, MBP fusion) (Vibrio cholerae, UniProt Q9KNA8 1-469); assay: as above; conditions: protein: recombinant, tags: MBP (pMal-c2x, pUNC2001)
T2 sequence: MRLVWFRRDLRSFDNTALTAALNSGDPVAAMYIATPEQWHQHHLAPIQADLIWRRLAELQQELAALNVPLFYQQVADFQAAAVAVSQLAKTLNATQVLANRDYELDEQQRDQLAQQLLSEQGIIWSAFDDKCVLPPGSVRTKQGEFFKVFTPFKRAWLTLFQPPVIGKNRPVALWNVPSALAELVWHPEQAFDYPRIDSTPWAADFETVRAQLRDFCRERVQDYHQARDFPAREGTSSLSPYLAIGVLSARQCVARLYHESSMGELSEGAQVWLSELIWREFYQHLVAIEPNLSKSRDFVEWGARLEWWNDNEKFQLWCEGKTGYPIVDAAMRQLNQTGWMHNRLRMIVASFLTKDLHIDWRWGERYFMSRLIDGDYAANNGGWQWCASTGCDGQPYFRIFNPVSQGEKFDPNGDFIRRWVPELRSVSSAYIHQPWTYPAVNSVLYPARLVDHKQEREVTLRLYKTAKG

[3] = biological target: T2, VcPHR (CPD photolyase, MBP fusion); assay: SPR; photoactivated, DTT; described as nonspecific; SPR (SensiQ Discovery, neutravidin BioCap chip), 1X PBS (10 mM phosphate, 2.7 mM KCl, 137 mM NaCl) pH 7.4, 0.005% Tween 20, 25 C, 50 uL/min; protein in PBS with 1 mM DTT; conditions: protein: recombinant, tags: MBP (pMal-c2x, pUNC2001)
[4] = biological target: T1, CRY-DASH (VcCry1, MBP fusion); assay: SPR; photoactivated, DTT; nonspecific, similar to BSA; SPR (SensiQ Discovery, neutravidin BioCap chip), 1X PBS (10 mM phosphate, 2.7 mM KCl, 137 mM NaCl) pH 7.4, 0.005% Tween 20, 25 C, 50 uL/min; protein in PBS with 1 mM DTT; conditions: protein: recombinant; tags: MBP (pMal-c2x, pUNC2002); label: 5'-biotin
[5] = biological target: T1, CRY-DASH (VcCry1, MBP fusion); assay: SPR; photoactivated, DTT; described as nonspecific; SPR (SensiQ Discovery, neutravidin BioCap chip), 1X PBS (10 mM phosphate, 2.7 mM KCl, 137 mM NaCl) pH 7.4, 0.005% Tween 20, 25 C, 50 uL/min; protein in PBS with 1 mM DTT; conditions: protein: recombinant; tags: MBP (pMal-c2x, pUNC2002); label: 5'-biotin on strand 1; blunt
[6] = biological target: T1, CRY-DASH (VcCry1, MBP fusion); assay: SPR; photoactivated, DTT; no significant binding, similar to BSA; SPR (SensiQ Discovery, neutravidin BioCap chip), 1X PBS (10 mM phosphate, 2.7 mM KCl, 137 mM NaCl) pH 7.4, 0.005% Tween 20, 25 C, 50 uL/min; protein in PBS with 1 mM DTT; conditions: protein: recombinant; tags: MBP (pMal-c2x, pUNC2002); label: 5'-biotin on strand 1; blunt
[7] = label: 5'-biotin on strand 1, blunt

B1: UV-damaged ssDNA 48-mer (ssDNA)
DNA: GACGCAGATCTACGAATTCGCTTAATTCGCTGCACCGGATCCCGCTAG
modifications: UV 254 nm irradiated, mostly CPD (mixed lesions, positions not defined)
- Kd [1]: 0.0637 µM
- Kd ([2]; label: 5'-biotin): 0.0012 µM

B2: undamaged ssDNA 48-mer (ssDNA)
DNA: B1 DNA
- Kd ([3]; label: 5'-biotin): 14 µM
- Kd [4]: 117 µM

B3: undamaged dsDNA 48-mer (dsDNA)
DNA 1: B1 DNA
DNA 2: CTAGCGGGATCCGGTGCAGCGAATTAAGCGAATTCGTAGATCTGCGTC
- Kd [5]: 52.1 µM
- Kd [3, 7]: 18.7 µM

B4: UV-damaged dsDNA 48-mer (dsDNA)
DNA 1: B1 DNA
DNA 2: B3 DNA 2
modifications: strand 1 UV 254 nm irradiated, mostly CPD (mixed lesions, positions not defined); complement undamaged
- Kd [2, 7]: 0.022 µM
- Kd [6]: 17.8 µM
